# Test results taken from IntAct's records for PubMed 12670962.
# B1: Cell division inhibitor SulA (Escherichia coli (strain K12)), P0AFZ5 (parent)
# chain: MYTSGYAHRSSSFSSAASKIARVSTENTTAGLISEVVYREDQPMMTQLLLLPLLQQLGQQSRWQLWLTPQQKLSREWVQASGLPLTKVMQISQLSPCHTVESMVRALRTGNYSVVIGWLADDLTEEEHAELVDAANEGNAMGFIMRPVSASSHATRQLSGLKIHSNLYH
# Variants of: B1
# Details: with hslu_ecoli hslU
row,Variant,effect of a mutation on the interaction
1,L57F,disrupting interaction
2,M89I,increasing interaction
